Experimental findings from patent publication US20220016205A1, “METHODS OF OVERCOMING RESISTANCE TO IMMUNE CHECKPOINT INHIBITORS” (Board of Regents, The University of Texas System, priority 2018, published 2022) are described below.

The subject of one assay is RAW 264.7 cells. The assay can be described thus: qPCR in RAW 264.7 cells co-cultured with 344SQR cells (transwell) with follistatin or K02288. The format is cell-based, murine. To be noted: 344SQR co-culture plus follistatin versus 344SQR co-culture only, 24 or 48 hours (FIG. 3I). From the text: Quantitative polymerase chain reaction (qPCR). Total RNA was isolated from cells and tumors with Triazol (Life Technologies) according to the manufacturer's protocol. For studies of BMP7, p38α, IL-1α, IL-1β, TNF-α, RANTES, IL-2, and IFN-γ expression, mRNA was retrotranscribed with the iScript™ gDNA Clear cDNA Synthesis Kit (BioRad) and analyzed by qPCR using SYBR Green (Life Technologies) with specific primers according to the manufacturer's protocol. The comparative Ct method was used to calculate the relative abundance of mRNAs compared with ACTB (beta-actin) expression for cancer cells or CD45 expression for immune cells.
Co-culture experiments and treatments. Viable cells were counted with a hemocytometer (0.4% Trypan blue solution) and diluted to 40,000 cells per well in 24-wells plates. Cells from 344SQP, 344SQR, 344SQ ctrl, or 344SQ-shBMP7 tumors were seeded at the top inserts (24-mm Transwell with 0.4-μm pore polycarbonate membrane insert, Sigma-Aldrich), and RAW 264.7 or CD4^+ T cells were seeded at the bottom of the transwell system. […] RNA was then isolated from RAW 264.7 or CD4^+ T cells and analyzed for p38α, IL-1α, IL-1β, TNF-α, RANTES, IL-2 and IFN-γ expression with qPCR. […]

The test system of another assay is peritoneal macrophages. In words: qPCR in peritoneal macrophages co-cultured with 344SQR cells (transwell) with follistatin or K02288. The format is cell-based, mouse. To be noted: 344SQR co-culture plus follistatin versus 344SQR co-culture only, 24 or 48 hours (FIG. 3J).
In the next assay the test system is 344SQR tumors. The assay can be described thus: Tumor growth and survival of mice with anti-PD1-resistant 344SQR tumors treated with follistatin, anti-PD1 or both. The format is in vivo, 129Sv/Ev mice. To be noted: follistatin 0.1 mg/kg i.p. (with or without anti-PD1 10 mg/kg), 2 weeks. How it is done:
In vivo studies. All mouse studies were approved by the Institutional Animal Care and Use Committee (IACUC) of The University of Texas MD Anderson Cancer Center before their initiation; animal care was provided according to IACUC standards, and all mice had been bred and were maintained in our own specific pathogen-free mouse colony. For RRBS, RPPA and TILs studies, primary tumors were established by subcutaneous injection of 344SQP or 344SQR cells (0.5×10^6 in 100 μL of sterile phosphate buffered saline [PBS]) into the leg of syngeneic 129Sv/Ev mice (female, 12-16 weeks old). Mice were then given intraperitoneal injections of anti-PD1 or control IgG antibodies (10 mg/kg) (Bio X cell), starting on day 4 after tumor cell inoculation and continuing twice per week for a total of 4 doses. At 24 hours after the last anti-PD1 treatment, tumor tissues were collected for DNA (2 mice/group) and protein isolation (2 or 3 mice/group). For TILs isolation, tumor tissues (3 mice/group) were collected a week after the last treatment with anti-PD1. […] Tumors were measured with calipers three times per week and recorded as tumor volume (in mm^3)=width^2×length/2. […] Mouse survival rates were analyzed by using the Kaplan-Meier method and compared with log-rank tests.

B1: follistatin: BMP7 antagonist protein, natural inhibitor of BMP7 (R&D Systems, Catalog #769-FS-025) (protein, UniProt P19883 30-344, looked up)
Follistatin: GNCWLRQAKNGRCQVLYKTELSKEECCSTGRLSTSWTEEDVNDNTLFKWMIFNGGAPNCIPCKETCENVDCGPGKKCRMNKKNKPRCVCAPDCSNITWKGPVCGLDGKTYRNECALLKARCKEQPELEVQYQGRCKKTCRDVFCPGSSTCVVDQTNNAYCVTCNRICPEPASSEQYLCGNDGVTYSSACHLRKATCLLGRSIGLAYEGKCIKAKSCEDIQCTGGKKCLWDFKVGRGRCSLCDELCPDSKSDEPVCASDNATYASECAMKEAACSSGVLLEVKHSGSCNSISEDTEEEEEDEDQDYSFPISSILEW
On to B1, for which the “expression of p38a and p38α-regulated cytokines and chemokines” value with RAW 264.7 cells and in the assay on peritoneal macrophages was “higher expression” throughout. The tumor growth entry with 344SQR tumors (compared with anti-PD1 therapy only (FIG. 5C)) is “decreased tumor growth”. For the same molecule, in the assay on 344SQR tumors (compared with anti-PD1 therapy only, Kaplan-Meier (FIG. 5C)), the survival result is given as “extended survival”.
